# Assay results reported in article PMC12416549 (2024).
# Where a chain is given by its changes, count along the chain named. Names may count otherwise.
# T1: TNFR1 (Homo sapiens, UniProt P19438)
# T1 chain: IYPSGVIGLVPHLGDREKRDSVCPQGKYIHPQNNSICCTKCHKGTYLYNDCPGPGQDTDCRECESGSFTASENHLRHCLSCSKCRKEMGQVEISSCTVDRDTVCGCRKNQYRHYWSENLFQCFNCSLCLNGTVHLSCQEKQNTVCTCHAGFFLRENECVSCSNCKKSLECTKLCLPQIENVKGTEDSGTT
# B1: L38N (designed binder)
# chain: MTLQELLREEALRRAEAEAFRYALELLAEKFPEQKEYNLDLAEEIESQIRSLSGVDVEDVRKFLDKEWAWVKELLAEHPAELAEVEAARAARLAELRAEVEAKVAA
# B2: E36D (designed binder)
# chain: B1 chain with E36D, N38L
# B3: D56W (designed binder)
# chain: B1 chain with N38L, D56W
# B4: A19M (designed binder)
# chain: B1 chain with A19M, N38L
# B5: A76K (designed binder)
# chain: B1 chain with N38L, A76K
# B6: K62E (designed binder)
# chain: B1 chain with N38L, K62E
# B7: L24Q (designed binder)
# chain: B1 chain with L24Q, N38L
# B8: L39D (designed binder)
# chain: B1 chain with N38L, L39D
# B9: E43K (designed binder)
# chain: B1 chain with N38L, E43K
# B10: Q48Y (designed binder)
# chain: B1 chain with N38L, Q48Y
# B11: V60N (designed binder)
# chain: B1 chain with N38L, V60N
# B12: E25N (designed binder)
# chain: B1 chain with E25N, N38L
# B13: R61G (designed binder)
# chain: B1 chain with N38L, R61G
# B14: K62Q (designed binder)
# chain: B1 chain with N38L, K62Q
# B15: E95K (designed binder)
# chain: B1 chain with N38L, E95K
# B16: A17R (designed binder)
# chain: B1 chain with A17R, N38L
# B17: A102T (designed binder)
# chain: B1 chain with N38L, A102T
# B18: L3P (designed binder)
# chain: B1 chain with L3P, N38L
# B19: E84R (designed binder)
# chain: B1 chain with N38L, E84R
# B20: L93H (designed binder)
# chain: B1 chain with N38L, L93H
# B21: W68D (designed binder)
# chain: B1 chain with N38L, W68D
# B22: E101D (designed binder)
# chain: B1 chain with N38L, E101D
# B23: R61V (designed binder)
# chain: B1 chain with N38L, R61V
# B24: D56C (designed binder)
# chain: B1 chain with N38L, D56C
# B25: E99K (designed binder)
# chain: B1 chain with N38L, E99K
# B26: R61Y (designed binder)
# chain: B1 chain with N38L, R61Y
# B27: P79Y (designed binder)
# chain: B1 chain with N38L, P79Y
# B28: R89K (designed binder)
# chain: B1 chain with N38L, R89K
# B29: A11F (designed binder)
# chain: B1 chain with A11F, N38L
# B30: R14S (designed binder)
# chain: B1 chain with R14S, N38L
# B31: F20C (designed binder)
# chain: B1 chain with F20C, N38L
# B32: Y37R (designed binder)
# chain: B1 chain with Y37R, N38L
# B33: K62Y (designed binder)
# chain: B1 chain with N38L, K62Y
# B34: L93T (designed binder)
# chain: B1 chain with N38L, L93T
# B35: E10I (designed binder)
# chain: B1 chain with E10I, N38L
# B36: E99C (designed binder)
# chain: B1 chain with N38L, E99C
# B37: S47I (designed binder)
# chain: B1 chain with N38L, S47I
# B38: I45H (designed binder)
# chain: B1 chain with N38L, I45H
# B39: L6Y (designed binder)
# chain: B1 chain with L6Y, N38L
# B40: E81Q (designed binder)
# chain: B1 chain with N38L, E81Q
# Target: T1, TNFR1
# Test: yeast display SC50
row,Binder,apparent Kd (screen)
1,B1,1.86 nM
2,B2,0.49 nM
3,B3,1.69 nM
4,B4,0.539 nM
5,B5,0.718 nM
6,B6,0.79 nM
7,B7,0.79 nM
8,B8,8.56 nM
9,B9,0.79 nM
10,B10,11.4 nM
11,B11,0.956 nM
12,B12,0.869 nM
13,B13,2.25 nM
14,B14,0.539 nM
15,B15,0.539 nM
16,B16,0.539 nM
17,B17,0.79 nM
18,B18,2.73 nM
19,B19,0.79 nM
20,B20,0.446 nM

row,Binder,apparent Kd (screen)
1,B21,12.5 nM
2,B22,0.49 nM
3,B23,0.593 nM
4,B24,0.956 nM
5,B25,0.539 nM
6,B26,10.4 nM
7,B27,0.869 nM
8,B28,0.539 nM
9,B29,0.718 nM
10,B30,0.49 nM
11,B31,1.69 nM
12,B32,4.83 nM
13,B33,0.446 nM
14,B34,0.653 nM
15,B35,1.16 nM
16,B36,0.653 nM
17,B37,0.956 nM
18,B38,0.956 nM
19,B39,5.31 nM
20,B40,0.49 nM
